# Assay results reported in patent publication US20240254229A1 (Molecular Partners, published 2024).
# T1: biotinylated extracellular domain of human CD123 (SEQ ID NO: 88), Fc and Avi tagged (human, UniProt P26951 19-303, biotinylated with BirA-GST (Avi tag))
# T1 construct: also called hCD123
# T1 sequence: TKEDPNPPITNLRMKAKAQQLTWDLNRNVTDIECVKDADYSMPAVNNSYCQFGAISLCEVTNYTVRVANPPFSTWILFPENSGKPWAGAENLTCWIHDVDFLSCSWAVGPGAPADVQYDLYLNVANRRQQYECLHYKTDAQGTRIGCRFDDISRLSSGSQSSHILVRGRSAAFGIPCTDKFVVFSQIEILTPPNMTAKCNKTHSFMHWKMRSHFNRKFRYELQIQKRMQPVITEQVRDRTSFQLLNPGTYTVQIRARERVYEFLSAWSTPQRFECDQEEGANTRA
# T2: hCD123 (recombinant, construct not stated) (human, UniProt P26951 19-305, limits assumed)
# T2 construct: also called CD123 (Ligand 2)
# T2 sequence (looked up): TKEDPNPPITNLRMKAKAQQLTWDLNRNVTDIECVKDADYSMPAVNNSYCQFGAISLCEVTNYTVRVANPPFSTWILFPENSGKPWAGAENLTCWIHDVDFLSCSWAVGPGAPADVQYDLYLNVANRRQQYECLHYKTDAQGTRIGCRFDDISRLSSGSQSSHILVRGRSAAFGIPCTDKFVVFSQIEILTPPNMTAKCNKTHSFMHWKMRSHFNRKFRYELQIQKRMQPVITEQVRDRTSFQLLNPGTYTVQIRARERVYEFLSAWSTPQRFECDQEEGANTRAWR
# T3: extracellular domain of human CD70 (SEQ ID NO: 89), hCD70-Fc-trimer, ACRO Biosystems (human, UniProt P32970 52-193, chemically biotinylated where the biotinylated form was used)
# T3 construct: also called human CD70-Fc-trimer; Bio.CD70
# T3 sequence: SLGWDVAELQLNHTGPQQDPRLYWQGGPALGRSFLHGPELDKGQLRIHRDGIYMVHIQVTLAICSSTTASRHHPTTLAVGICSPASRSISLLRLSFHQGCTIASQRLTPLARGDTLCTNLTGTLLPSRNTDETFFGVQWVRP
# B1: DARPin® protein #27 (designed binder)
# chain: DLGKKLLEAALEGQLDEVRELLKAGADVNAKDQEGYTPLHLAAALGHLEIVEVLLKAGADVNAKDSIGRTPLHLAAYKGHLEIVEVLLKAGADVNAQDLLGETPADLAAEQGHQDIAEVLQKAAGSPTPTPTTPTPTPTTPTPTPTGSDLGVKLLLAASRGQLDEVRILLKAGADVNAKDIDEGYTPLHIAAYYGHLEIVEVLLKAGADVNAKDRYGKTPLHLAAISGHLEIVEVLLKAGADVNAQDDKGDTPADLAADYGHQDIAEVLQKAAGSPTPTPTTPTPTPTTPTPTPTGSDLGQKLLEAAWAGQDDEVRELLKAGADVNAKNSRGWTPLHTAAQTGHLEIFEVLLKAGADVNAKDDKGVTPLHLAAALGHLEIVEVLLKAGADVNAQDSWGTTPADLAAKYGHEDIAEVLQKAA
# notes: CD123-CD33-CD3; also called αCD123-aCD33-αCD3_1; not shown: N-terminal His-tag
# Columns and labels:
# [1] = molecular target: T4, biotinylated extracellular domain of human CD33 (SEQ ID NO: 87), Fc and Avi tagged (human, UniProt P20138 18-259, biotinylated with BirA-GST (Avi tag)); assay: SPR (ProteOn XPR36), target on GLC chip, DARPin as analyte
# T4 construct: also called hCD33; human target hCD33
# [2] = molecular target: T1, biotinylated extracellular domain of …; assay: as above
# [3] = molecular target: T2, hCD123 (recombinant, construct not …); assay: switchSENSE, hCD33 and hCD123 co-immobilised 2:1; panel headed CD123, column KD1 (affinity)
# Description: The designed ankyrin repeat proteins: DARPin® protein #20, DARPin® protein #21, DARPin® protein #22, DARPin® protein #27, DARPin® protein #40 and DARPin® protein #41 were tested in a concentration of 0.16 and 64 nM (in a buffer PE140 containing 10 mM Na2HPO4/NaH2PO4, 140 mM NaCl, 0.05% Tween20, 50 μM EDTA, 50 μM EGTA) for binding against two ligands hCD33 and hCD123, which both were immobilized simultaneously to DNA nanolevers, on the surface, at a pre-defined ratio (2:1, CD33:CD123) and 10% density (100:50) on an ADP-48-1-0 chip, where 100% density 1000 receptors/μm2 (preincubated R1-B48-CD123 and G1-A48-CD33 (100 nM) diluted in cNL-48 (dark)). Briefly the following steps were performed: [0724] Conjugation. Amine coupling of the two ligands (CD33 and CD123) to the DNA nanolever (A48, B48, respectively) and purification of the conjugates using the proFIRE® solution (Dynamic Biosensors GmbH) at 25° C. [0725] Evaluation of all the combined affinity and avidity of all different proteins to both ligands attached on the surface of an ADP chip using a DRX+ instrument (dynamic BIOSENSORS). [0726] Statistical analysis (repeatability from 2 to 5 times) including regeneration of the chip surface every concentration analyzed and long dissociation times and data were fitted using a bi-exponential global fit.
# human serum albumin = molecular target: T5, human serum albumin (human, UniProt P02768 25-609); assay: SPR (ProteOn XPR36), target on GLC chip
# T5 construct: also called HSA; SA
# [4] = molecular target: T3, extracellular domain of human CD70 (SEQ …); assay: SPR (ProteOn XPR36), target on GLC chip
# T4 sequence (P20138 18-259 R69G): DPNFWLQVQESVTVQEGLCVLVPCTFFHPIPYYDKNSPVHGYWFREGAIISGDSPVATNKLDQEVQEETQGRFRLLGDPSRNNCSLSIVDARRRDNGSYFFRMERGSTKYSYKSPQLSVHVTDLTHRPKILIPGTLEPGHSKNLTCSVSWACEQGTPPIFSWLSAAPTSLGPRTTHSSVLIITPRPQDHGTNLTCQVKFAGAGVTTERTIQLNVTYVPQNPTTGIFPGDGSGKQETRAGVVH
# T5 sequence (P02768 25-609 limits assumed): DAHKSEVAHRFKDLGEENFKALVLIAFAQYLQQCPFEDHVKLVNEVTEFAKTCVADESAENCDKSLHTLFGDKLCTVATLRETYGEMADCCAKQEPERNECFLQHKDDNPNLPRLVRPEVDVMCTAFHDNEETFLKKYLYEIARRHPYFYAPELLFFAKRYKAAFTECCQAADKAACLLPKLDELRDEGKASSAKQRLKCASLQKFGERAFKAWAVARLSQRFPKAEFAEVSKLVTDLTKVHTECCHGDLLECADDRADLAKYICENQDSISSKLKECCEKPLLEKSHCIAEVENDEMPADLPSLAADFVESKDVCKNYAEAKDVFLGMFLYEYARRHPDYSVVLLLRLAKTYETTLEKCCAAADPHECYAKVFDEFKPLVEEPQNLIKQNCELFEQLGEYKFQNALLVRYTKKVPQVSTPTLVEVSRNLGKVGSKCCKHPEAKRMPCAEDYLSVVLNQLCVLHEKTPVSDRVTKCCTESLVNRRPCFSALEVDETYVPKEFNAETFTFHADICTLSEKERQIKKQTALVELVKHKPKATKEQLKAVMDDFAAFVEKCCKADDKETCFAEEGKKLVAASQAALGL
binder,measurement,setting,value
B1,Kd,[1],5.7 nM
same,Kd,[2],19 nM
same,Kd,[3],4.5 nM
same,binding result,human serum albumin,no binding (tested: 100 nM (highest concentration))
same,binding result,[4],no binding (tested: 100 nM (highest concentration))
